This is an account of results in US20100048412A1.

Where only a bound is given, the exact number is not on record here.

In this assay the target is R19-Ava-…-NH2 (2). The assay is described as follows: cell-based or functional assay.

For “prostate-specific antigen (PSA), proteolytically active (from UniProt P07288 25-261) (enzyme)”, the suppression of peptide digestion by 420 nM PSA after addition of the protease inhibitor mix (AEBSF, Aprotinin, Elastatinal, GGACK) was greater than 90%.
